US7883707B2, “Induction of antigen specific immunnologic tolerance” (priority 2002, dated 2011)
Where “and” joins values, the source holds several entries; their conditions need not be identical. Equal entries are not always repeated. Entries after “also recorded” stand apart in the source; their conditions may differ.

Assays:
[1] = system: Hurler fibroblasts; assay: Half maximal uptake (Kuptake) of iduronidase into Hurler fibroblasts; assay type: cell-based
Description: It is especially preferred that the receptor has a Kuptake for the ligand of at least about 10^−6 M, usually at least about 10^−7 M more usually at least about 10^−8 M and preferably at least about 10^−9 M where Kuptake represents the concentration of ligand at which half maximal uptake occurs in a cell. Receptors of interest include the transferrin receptor, the melanotransferrin receptor, mannose 6-phosphate receptor, growth hormone receptor, and the like. Cognate ligands include: insulin-like growth factor II (IGF2), transferrin, growth hormone, insulin, and binding fragments thereof, particularly polypeptides having specific and high affinity receptors on diverse cell types. Single chain antibodies and binding agents from randomized phage display systems could be used if they have adequate affinity for the receptor. To determine the Kuptake of a ligand and receptor combination, methods known in the art may be used, for example see Kakkis et al. (1994) Protein Expr Purif 5(3):225-32 for assays used to determine the Kuptake of alpha-L-iduronidase. The disclosed methods are readily adapted to any ligand and receptor combination. Such assays are also useful in verifying the uptake of toleragens comprising exogenous high uptake moieties.
Enzyme Infusions. […] Animals monitored for an anaphylactic reaction. […]

[2] = system: IgA and IgE antibodies to iduronidase; assay: ELISA for IgG, IgA and IgE antibodies to iduronidase in canine sera; assay type: in vivo; details: before vs after 12 weekly infusions with iduronidase
Description: The tolerance regimen in canine prevents the induction of IgG as manifested by a decrease in total IgG response against iduronidase as compared to the IgG response observed in non-tolerant canines. […] Analyses of the immune sera of canines that were either tolerant (dogs […] and SA) or canine controls (dogs RU and UM) that had not received the tolerizing regimen were studied for the presence of IgG, IgA and IgE antibodies to iduronidase.

[3] = dog, in vivo
Description: Canines were administered 14,000 U/kg/week α-L-iduronidase or higher dose as dose was ramped up, in a 50 mL infusion in saline containing 1 mg/mL canine albumin, 10 mM NaPO4, pH 5.8. Administered intravenously over 2 hours (1st hour 3,000 U/kg/hr; 2nd hour 11,000 U/kg/hr, or a higher rate in the 2nd hour depending on the dose). Animals were monitored for anaphylactic reaction.

[4] = system: antibody titer to iduronidase; assay: ELISA antibody titer to iduronidase in canines on weekly iduronidase infusions, with or without tolerance regimens
Description: Normal and MPS I canines were obtained from the MPS I canine colony at Harbor-UCLA. The dogs are a cross between beagles and Plott hounds and average 12-20 kg in weight. The canines were under 2 years of age and at least 4 months of age for these experiments.
Enzyme Infusions. […] For toleragenic infusions, 14,000 U/kg/week α-L-iduronidase in 50 mL infusion in saline with 1 mg/mL canine albumin, and 10 mM NaPO4 was administered intravenously over 2 hours (1st hour 3,000 U/kg/hr; 2nd hour 11,000 U/kg/hr). Animals monitored for an anaphylactic reaction.
Canines were initiated on immunosuppressive drugs at day 0, equivalent to 18 days prior to the first enzyme challenge. If scheduled, the canines received monoclonal antibodies by intravenous infusion (2-5 mg) just prior to ITI. On day 4, the dogs received, if scheduled, an intrathymic injection of iduronidase at 1 mg/kg. Two weeks later, the dogs were begun on a weekly schedule of iduronidase enzyme infusions consisting of a weekly intravenous infusion of 14,000 U/kg (0.056 mg/kg/wk) of human recombinant iduronidase.
All canines received 0.056 mg/kg/week rh iduronidase intravenous challenges. Pre treatment ELISA values represent serum antibody levels prior to first antigen challenge with iduronidase.
Iduronidase was the same high uptake iduronidase as described above. The canines were challenged with 0.58 mg/kg of enzyme administered intravenously on a weekly basis for 3-6 doses.

[5] = system: ovalbumin; assay: Attempted induction of tolerance to ovalbumin; assay type: in vivo; details: ovalbumin with mannose terminated N-linked oligosaccharides
Description: The titer in the tolerance dogs stayed low for several months and was studied in RO and SA for 6 months of weekly infusions (FIG. 2).

Molecule | Kuptake (enzyme concentration at half maximal uptake) [1] | increase in IgA or IgE titer to iduronidase [2] [fold] | anaphylactic / anaphylactoid reaction during the infusion [3] | mean antibody titer after 12 weekly infusions of rhIDU ([4]; ELISA, eight normal and MPS I canines vs eight control canines) [OD units/μl serum] | Antibody levels at week 15 ([4]; MPS I canines, iduronidase raised stepwise to 0.500 mg/kg/week at week 15) [OD Units] | titer on reexposure (anamnestic response) ([4]; canine Nitro, after nearly 6 months hiatus, 0.5 mg/kg/wk infusions) | further increase in antibody titer on higher therapeutic doses ([4]; immune responsive canines) | induction in antibody titer on rechallenge ([4]; non-tolerant canine RU, after 2 doses of enzyme following 4.5 month hiatus) [fold] | titers by week 14 of enzyme therapy ([4]; two MPS I canines previously treated with 0.5 mg/kg/wk, no tolerance regimen, 0.5 mg/kg) | mean antibody titer on higher therapeutic doses of iduronidase ([4]; up to 6 months, n=6 tolerant, n=2 immune responsive) [OD/μl serum] | tolerance induction with this form of the toleragen ([4]; canines, applied with the tolerance regimen (CsA+Aza), listed as dephosphorylated rhIDU) | induction of tolerance to ovalbumin [5]
iduronidase: recombinant human α-L-iduronidase, lysosomal hydrolase with mannose 6-phosphate marker (protein, UniProt P35475 28-653, looked up) Alpha-L-iduronidase: APHLVHVDAARALWPLRRFWRSTGFCPPLPHSQADQYVLSWDQQLNLAYVGAVPHRGIKQVRTHWLLELVTTRGSTGRGLSYNFTHLDGYLDLLRENQLLPGFELMGSASGHFTDFEDKQQVFEWKDLVSSLARRYIGRYGLAHVSKWNFETWNEPDHHDFDNVSMTMQGFLNYYDACSEGLRAASPALRLGGPGDSFHTPPRSPLSWGLLRHCHDGTNFFTGEAGVRLDYISLHRKGARSSISILEQEKVVAQQIRQLFPKFADTPIYNDEADPLVGWSLPQPWRADVTYAAMVVKVIAQHQNLLLANTTSAFPYALLSNDNAFLSYHPHPFAQRTLTARFQVNNTRPPHVQLLRKPVLTAMGLLALLDEEQLWAEVSQAGTVLDSNHTVGVLASAHRPQGPADAWRAAVLIYASDDTRAHPNRSVAVTLRLRGVPPGPGLVYVTRYLDNGLCSPDGEWRRLGRPVFPTAEQFRRMRAAEDPVAAAPRPLPAGGRLTLRPALRLPSLLLVHVCARPEKPPGQVTRLRALPLTQGQLVLVWSDEHVGSKCLWTYEIQFSQDGKAYTPVSRKPSTFNLFVFSPDTGAVSGSYRVRALDYWARPGPFSDPVPYLEVPVPRGPPSPGNP | about 1 nanomolar | ~10 | serious clinical anaphylactic reaction | 149 | > 500 | ≥ 400 | 2-3 fold | > 20 | 1800 and 2000 | 369 |  | 
dephospho iduronidase: recombinant iduronidase dephosphorylated by incubation with acid phosphatase bound to beads (protein, UniProt P35475 28-653, looked up, dephosphorylated) Alpha-L-iduronidase: APHLVHVDAARALWPLRRFWRSTGFCPPLPHSQADQYVLSWDQQLNLAYVGAVPHRGIKQVRTHWLLELVTTRGSTGRGLSYNFTHLDGYLDLLRENQLLPGFELMGSASGHFTDFEDKQQVFEWKDLVSSLARRYIGRYGLAHVSKWNFETWNEPDHHDFDNVSMTMQGFLNYYDACSEGLRAASPALRLGGPGDSFHTPPRSPLSWGLLRHCHDGTNFFTGEAGVRLDYISLHRKGARSSISILEQEKVVAQQIRQLFPKFADTPIYNDEADPLVGWSLPQPWRADVTYAAMVVKVIAQHQNLLLANTTSAFPYALLSNDNAFLSYHPHPFAQRTLTARFQVNNTRPPHVQLLRKPVLTAMGLLALLDEEQLWAEVSQAGTVLDSNHTVGVLASAHRPQGPADAWRAAVLIYASDDTRAHPNRSVAVTLRLRGVPPGPGLVYVTRYLDNGLCSPDGEWRRLGRPVFPTAEQFRRMRAAEDPVAAAPRPLPAGGRLTLRPALRLPSLLLVHVCARPEKPPGQVTRLRALPLTQGQLVLVWSDEHVGSKCLWTYEIQFSQDGKAYTPVSRKPSTFNLFVFSPDTGAVSGSYRVRALDYWARPGPFSDPVPYLEVPVPRGPPSPGNP | too low to be calculated |  |  |  |  |  |  |  |  |  | did not allow induction of the tolerant state | 
ovalbumin: non-phosphorylated protein antigen with mannose terminated N-linked oligosaccharides (protein, UniProt P01012 2-386, looked up) Ovalbumin: GSIGAASMEFCFDVFKELKVHHANENIFYCPIAIMSALAMVYLGAKDSTRTQINKVVRFDKLPGFGDSIEAQCGTSVNVHSSLRDILNQITKPNDVYSFSLASRLYAEERYPILPEYLQCVKELYRGGLEPINFQTAADQARELINSWVESQTNGIIRNVLQPSSVDSQTAMVLVNAIVFKGLWEKAFKDEDTQAMPFRVTEQESKPVQMMYQIGLFRVASMASEKMKILELPFASGTMSMLVLLPDEVSGLEQLESIINFEKLTEWTSSNVMEERKIKVYLPRMKMEEKYNLTSVLMAMGITDVFSSSANLSGISSAESLKISQAVHAAHAEINEAGREVVGSAEAGVDAASVSEEFRADHPFLFCIKHIATNAVLFFGRCVSP |  |  |  |  |  |  |  |  |  |  |  | did not succeed; also recorded: could not
